# According to article PMC2834479 (International journal of pharmaceutics, 2010):
# Where two headings read alike, the source gives them in different places. Marks after values point to notes of the source that are not given here.
# What was measured:
# [1] = tested on: anesthetized, hyperglycemic rats; assay: Blood glucose levels; assay type: in vivo, rat; conditions: nose drops, 2 units of insulin, mean +/- SEM, n=3-6; for Blood Glucose AUC 0-180: trapezoidal rule
# [2] = rat, in vivo
# [3] = rat, in vivo; remark: listed apart in the source
# [4] = tested on: cells that line the nasal cavity; conditions: 0.125% TDM, ref Arnold et al., 2004; cited from earlier work
# [5] = Plasma insulin levels after nasal administration of insulin nose drops; conditions: rats, 2 units of insulin, with 0.125% TDM, human insulin RIA, mean +/- SEM, n = 3-6
# [6] = with 0.125% TDM, basal glucose 303 to 393 mg/dl
Molecule,"Blood Glucose at 60 minutes after Insulin administration [1, 6]","Blood Glucose AUC 0-180 [1, 6]",Plasma Insulin AUC 0-180 [2],Plasma Insulin C-max [2],Plasma Insulin T-max [2] [min],Absorption of insulin from the nasal cavity (in words) [3],Toxicity to the cells that line the nasal cavity [4],Blood Glucose AUC 0-180 ([1]; without TDM (0%)) [mg·min/dL],"Blood Glucose at 60 minutes after Insulin administration ([1]; without TDM (0%), upper limit of glucometer = 600 mg/dL)",Plasma Insulin C-max [5],"Plasma Insulin AUC 0-180 ([5]; up to 180 minutes, trapezoidal rule)"
Glargine Insulin,183 +/- 26 ^a mg/dL,36345 +/- 3600 ^a mg/dL × minutes,"67170 +/- 4800 ^a, ^b uU/ml × minutes","500 +/- 52 ^a, ^b uU/ml",60,absorbed from the nasal cavity,–,–,–,–,–
"CCCCCCCCCCCCCCO[C@@H]1O[C@H](CO)[C@@H](O[C@H]2O[C@H](CO)[C@@H](O)[C@H](O)[C@H]2O)[C@H](O)[C@H]1O [TDM, tetradecyl-β-D-maltoside]",–,–,–,–,–,–,minimal toxicity,–,–,–,–
Lispro Insulin,160 +/- 27 ^a mg/dL,39863 +/- 3200 ^a mg/dL × minutes,41820 +/- 3300 ^a uU/ml × minutes,–,15,–,–,–,–,–,–
Aspart Insulin,"205 +/- 13 ^a, ^b mg/dL",–,"55238 +/- 4600 ^a, ^b uU/ml × minutes",–,15,absorbed from the nasal cavity,–,–,–,–,–
"Regular Insulin: regular insulin (Novolin R®), Novo Nordisk",135 +/- 22 ^a mg/dL,32745 +/- 2400 ^a mg/dL × minutes,–,–,–,–,–,93728 ± 2600,600 +/- 10 ^** mg/dL,874 +/- 56 ^a uU/ml,33398 +/- 2500 ^a uU/ml × minutes
